# Reference: the supplement of paper PMC10567573
# B1: STK38L (parent)
# chain: NWKETLVFPPEVPISEKAKDLILR
# Variants of: B1
# Assay: protein stability index of a GFP-peptide fusion (GPS, HEK-293T) (PSI 1-6); higher = more stable
# Details: c terminus: a fixed tail appended
# 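Note: lentivirally expressed fusions sorted by FACS into six bins by GFP to DsRed ratio, PSI derived from sequencing read proportions per bin multiplied by bin number.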
row,Variant,protein stability index
1,NWKETLVFPPEVPISEKPKDLILR [A18P],3.1
2,NWKETLVFPPEVPISEKFKDLILR [A18F],3.06
3,NWKETLVFPPEVPISEKRKDLILR [A18R],3.69
4,NWKETLVFPPEVPISEKLKDLILR [A18L],1.8
5,NWKETLVFPPEVPISEKEKDLILR [A18E],4.56
6,NWKETLVFPPEVPISEKQKDLILR [A18Q],3.57
7,NWKETLVFPPEVPISESAKDLILR [K17S],4.07
8,NWKETLVFPPEVPISEQAKDLILR [K17Q],3.05
9,NWKETLVFPPEVPISEHAKDLILR [K17H],2.98
10,NWKETLVFPPEVPISEWAKDLILR [K17W],2.41
11,NWKETLVFPPEVPISEDAKDLILR [K17D],3.89
12,NWKETLVFPPEVPISEMAKDLILR [K17M],2.85
13,NWKETLVFPPEVPISEEAKDLILR [K17E],3.32
14,NWKETLVFPPEVPISEVAKDLILR [K17V],2.21
15,NWKETLVFPPEVPISEFAKDLILR [K17F],2.93
16,NWKETLVFPPEVPISEAAKDLILR [K17A],3.17
17,NWKETLVFPPEVPISETAKDLILR [K17T],3.7
18,NWKETLVFPPEVPISECAKDLILR [K17C],2.81
19,NWKETLVFPPEVPISENAKDLILR [K17N],3.37
20,NWKETLVFPPEVPISEYAKDLILR [K17Y],3.14
21,NWKETLVFPPEVPISELAKDLILR [K17L],2.15
22,NWKETLVFPPEVPISEGAKDLILR [K17G],2.8
23,NWKETLVFPPEVPISEIAKDLILR [K17I],1.92
24,NWKETLVFPPEVPISEPAKDLILR [K17P],3.41

row,Variant,protein stability index
1,NWKETLVFPPEVPISERAKDLILR [K17R],2.8
2,NWKETLVFPPEVPISEKAKDLIKR [L23K],4.24
3,NWKETLVFPPEVPISEKAKDLIDR [L23D],4.92
4,NWKETLVFPPEVPISEKAKDLINR [L23N],4.09
5,NWKETLVFPPEVPISEKAKDLIER [L23E],4.15
6,NWKETLVFPPEVPISEKAKDLISR [L23S],3.94
7,NWKETLVFPPEVPISEKAKDLIIR [L23I],3.24
8,NWKETLVFPPEVPISEKAKDLIQR [L23Q],4.22
9,NWKETLVFPPEVPISEKAKDLIAR [L23A],3.75
10,NWKETLVFPPEVPISEKAKDLIGR [L23G],4.47
11,NWKETLVFPPEVPISEKAKDLIPR [L23P],3.9
12,NWKETLVFPPEVPISEKAKDLIRR [L23R],4.19
13,NWKETLVFPPEVPISEKAKDLIWR [L23W],2.12
14,NWKETLVFPPEVPISEKAKDLIYR [L23Y],2.99
15,NWKETLVFPPEVPISEKAKDLIVR [L23V],3.27
16,NWKETLVFPPEVPISEKAKDLIMR [L23M],2.6
17,NWKETLVFPPEVPISEKAKDLIFR [L23F],2.9
18,NWKETLVFPPEVPISEKAKDLICR [L23C],3.36
19,NWKETLVFPPEVPISEKAKDLITR [L23T],3.77
20,NWKETLVFPPEVPISEKAKDLIHR [L23H],3.78
21,NWKETLVFPPEVPIHEKAKDLILR [S15H],2.68
22,NWKETLVFPPEVPIWEKAKDLILR [S15W],2
23,NWKETLVFPPEVPIKEKAKDLILR [S15K],3.09
24,NWKETLVFPPEVPIQEKAKDLILR [S15Q],3.87

row,Variant,protein stability index
1,NWKETLVFPPEVPIIEKAKDLILR [S15I],1.89
2,NWKETLVFPPEVPIVEKAKDLILR [S15V],2.31
3,NWKETLVFPPEVPIPEKAKDLILR [S15P],2.68
4,NWKETLVFPPEVPINEKAKDLILR [S15N],2.62
5,NWKETLVFPPEVPITEKAKDLILR [S15T],3.27
6,NWKETLVFPPEVPIFEKAKDLILR [S15F],2.44
7,NWKETLVFPPEVPIMEKAKDLILR [S15M],3.37
8,NWKETLVFPPEVPICEKAKDLILR [S15C],3.67
9,NWKETLVFPPEVPIREKAKDLILR [S15R],2.79
10,NWKETLVFPPEVPIAEKAKDLILR [S15A],2.84
11,NWKETLVFPPEVPIYEKAKDLILR [S15Y],2.81
12,NWKETLVFPPEVPIEEKAKDLILR [S15E],4.21
13,NWKETLVFPPEVPILEKAKDLILR [S15L],1.84
14,NWKETLVFPPEVPIGEKAKDLILR [S15G],2.92
15,NWKETLVFPPEVPIDEKAKDLILR [S15D],4.1
16,NWKETLVFPPEVPISEKAKWLILR [D20W],1.92
17,NWKETLVFPPEVPISEKAKILILR [D20I],1.52
18,NWKETLVFPPEVPISEKAKYLILR [D20Y],1.8
19,NWKETLVFPPEVPISEKAKMLILR [D20M],1.94
20,NWKETLVFPPEVPISEKAKFLILR [D20F],2.52
21,NWKETLVFPPEVPISEKAKQLILR [D20Q],3
22,NWKETLVFPPEVPISEKAKVLILR [D20V],2.23
23,NWKETLVFPPEVPISEKAKGLILR [D20G],2.31
24,NWKETLVFPPEVPISEKAKSLILR [D20S],2.45

row,Variant,protein stability index
1,NWKETLVFPPEVPISEKAKHLILR [D20H],1.9
2,NWKETLVFPPEVPISEKAKCLILR [D20C],2.06
3,NWKETLVFPPEVPISEKAKKLILR [D20K],2.57
4,NWKETLVFPPEVPISEKAKPLILR [D20P],2.65
5,NWKETLVFPPEVPISEKAKALILR [D20A],2.92
6,NWKETLVFPPEVPISEKAKRLILR [D20R],2.94
7,NWKETLVFPPEVPISEKAKTLILR [D20T],2.92
8,NWKETLVFPPEVPISEKAKNLILR [D20N],2.63
9,NWKETLVFPPEVPISEKAKDLILH [R24H],3.16
10,NWKETLVFPPEVPISEKAKDLILL [R24L],2.03
11,NWKETLVFPPEVPISEKAKDLILQ [R24Q],2.83
12,NWKETLVFPPEVPISEKAKDLILK [R24K],3.6
13,NWKETLVFPPEVPISEKAKDLILC [R24C],2.16
14,NWKETLVFPPEVPISEKAKDLILG [R24G],3.9
15,NWKETLVFPPEVPISEKAKDLILA [R24A],3.09
16,NWKETLVFPPEVPISEKAKDLILF [R24F],2.13
17,NWKETLVFPPEVPISEKAKDLILI [R24I],1.88
18,NWKETLVFPPEVPISEKAKDLILE [R24E],3.57
19,NWKETLVFPPEVPISEKAKDLILD [R24D],4.32
20,NWKETLVFPPEVPISEKAKDLILP [R24P],3.43
21,NWKETLVFPPEVPISEKAKDLILN [R24N],3.96
22,NWKETLVFPPEVPISEKAKDLILM [R24M],2.64
